Starred links: 1 amine or outer side, 2 acyl side, 3 side chain; linkers in the order of their positions; H or OH if unused. Positions of bridges follow the written chain, without caps; N, C: chain ends. Non-standard residues stand in square brackets, D forms with d. Primed or numbered codes have the meaning given here. *: point of attachment. cholesteryl‑oxycarbonylmethyl = CC(C)CCC[C@@H](C)[C@H]1CC[C@H]2[C@@H]3CC=C4C[C@@H](OC(=O)C*)CC[C@]4(C)[C@H]3CC[C@]12C; B21″ = 2,7-dimethylnaphtyl linker joining two Cys, c1cc2ccc(C[*:2])cc2cc1C[*:1]; tBuAla = CC(C)(C)C[C@H](N)C(=O)O; Suc = O=C(CCC(=O)[*:2])[*:1]; hCys = N[C@@H](CCS)C(=O)O; Pentanoyl = CCCCC(=O)*; B1 = not defined here; B3 = not defined here
B1: peptide 26 (peptide)
peptide: Suc-CYLACIEALIRAAQEQQEKNEAALR-NH2
modifications: linker 1-5 via B1; reading uncertain
B2: peptide 37 (peptide)
peptide: Ac-ECYLACIEELIRKAQEQQEKNEAALR-NH2
modifications: linker 2-6 via B1; reading uncertain
B3: peptide 33 (peptide)
peptide: Suc-ECYLACIEALIRAAQEQQEKNEAALR-NH2
modifications: linker 2-6 via B1; reading uncertain
B4: peptide 28 (peptide)
peptide: Suc-[hCys]YLA[hCys]IEALIRAAREQQEKNEALLR-NH2
modifications: linker 1-5 via B1; reading uncertain
B5: peptide 32 (peptide)
peptide: Suc-ENYLRLIEELIRKAQEQQEKNEAALRGSGC(cholesteryl‑oxycarbonylmethyl)-NH2
SMILES: CC[C@H](C)[C@H](NC(=O)[C@H](CC(C)C)NC(=O)[C@H](CCC(=O)O)NC(=O)[C@H](CCC(=O)O)NC(=O)[C@@H](NC(=O)[C@H](CC(C)C)NC(=O)[C@H](CCCNC(=N)N)NC(=O)[C@H](CC(C)C)NC(=O)[C@H](Cc1ccc(O)cc1)NC(=O)[C@H](CC(N)=O)NC(=O)[C@H](CCC(=O)O)NC(=O)CCC(=O)O)[C@@H](C)CC)C(=O)N[C@@H](CCCNC(=N)N)C(=O)N[C@@H](CCCCN)C(=O)N[C@@H](C)C(=O)N[C@@H](CCC(N)=O)C(=O)N[C@@H](CCC(=O)O)C(=O)N[C@@H](CCC(N)=O)C(=O)N[C@@H](CCC(N)=O)C(=O)N[C@@H](CCC(=O)O)C(=O)N[C@@H](CCCCN)C(=O)N[C@@H](CC(N)=O)C(=O)N[C@@H](CCC(=O)O)C(=O)N[C@@H](C)C(=O)N[C@@H](C)C(=O)N[C@@H](CC(C)C)C(=O)N[C@@H](CCCNC(=N)N)C(=O)NCC(=O)N[C@@H](CO)C(=O)NCC(=O)N[C@@H](CSCC(=O)O[C@H]1CC[C@@]2(C)C(=CC[C@H]3[C@@H]4CC[C@H]([C@H](C)CCCC(C)C)[C@@]4(C)CC[C@@H]32)C1)C(N)=O
B6: peptide 34 (peptide)
peptide: Suc-ACYLACIEELIRKAQEQQEKNEAAL[dR]-NH2
modifications: linker 2-6 via B1; reading uncertain
B7: peptide 36 (peptide)
peptide: Suc-ACYLACIDELIAKAQEQQEKNEAALR-NH2
modifications: linker 2-6 via B1; reading uncertain
B8: peptide 29 (peptide)
peptide: Suc-ECYLRCIEELIRKAQEQQEKNEAALR-NH2
modifications: linker 2-6 via B1; reading uncertain
B9: peptide 27 (peptide)
peptide: Suc-CYLACIEELIRKAQEQQEKNEAAL[tBuAla]-NH2
modifications: linker 1-5 via B3; reading uncertain
B10: Sifuvirtide (peptide)
peptide: Ac-SWETWEREIENYTRQIYRILEESQEQQDRNERDLLE-NH2
B11: peptide 24 (peptide)
peptide: Suc-CYLACIEELIRKAQEQQEKNEAAL[tBuAla]-NH2
modifications: linker 1-5 via B1; reading uncertain
B12: peptide 38 (peptide)
peptide: Pentanoyl-ECYLACIEALIRAAQEQQEKNEAALR-NH2
modifications: linker 2-6 via B1; reading uncertain
B13: peptide 39 (peptide)
peptide: Pentanoyl-ECYLACIEALIRAAQEQQEKNEAALR-NH2
modifications: linker 2-6 via B21″
SMILES: CCCCC(=O)N[C@@H](CCC(=O)O)C(=O)N[C@H]1CSCc2ccc3ccc(cc3c2)CSC[C@@H](C(=O)N[C@H](C(=O)N[C@@H](CCC(=O)O)C(=O)N[C@@H](C)C(=O)N[C@@H](CC(C)C)C(=O)N[C@H](C(=O)N[C@@H](CCCNC(=N)N)C(=O)N[C@@H](C)C(=O)N[C@@H](C)C(=O)N[C@@H](CCC(N)=O)C(=O)N[C@@H](CCC(=O)O)C(=O)N[C@@H](CCC(N)=O)C(=O)N[C@@H](CCC(N)=O)C(=O)N[C@@H](CCC(=O)O)C(=O)N[C@@H](CCCCN)C(=O)N[C@@H](CC(N)=O)C(=O)N[C@@H](CCC(=O)O)C(=O)N[C@@H](C)C(=O)N[C@@H](C)C(=O)N[C@@H](CC(C)C)C(=O)N[C@@H](CCCNC(=N)N)C(N)=O)[C@@H](C)CC)[C@@H](C)CC)NC(=O)[C@H](C)NC(=O)[C@H](CC(C)C)NC(=O)[C@H](Cc2ccc(O)cc2)NC1=O
B14: peptide 30 (peptide)
peptide: Suc-ACYLACIDELIKKAQEQQEKNEAALR-NH2
modifications: linker 2-6 via B1; reading uncertain
B15: peptide 31 (peptide)
peptide: Suc-ACYLACIEELIRKAQEQQEKNEAALR-NH2
modifications: linker 2-6 via B1; not fully specified; reading uncertain
B16: peptide 35 (peptide)
peptide: Suc-ANYLALIEALIRAAQEQQEKNEAALRGSGC(cholesteryl‑oxycarbonylmethyl)-NH2
SMILES: CC[C@H](C)[C@H](NC(=O)[C@H](CC(C)C)NC(=O)[C@H](C)NC(=O)[C@H](CCC(=O)O)NC(=O)[C@@H](NC(=O)[C@H](CC(C)C)NC(=O)[C@H](C)NC(=O)[C@H](CC(C)C)NC(=O)[C@H](Cc1ccc(O)cc1)NC(=O)[C@H](CC(N)=O)NC(=O)[C@H](C)NC(=O)CCC(=O)O)[C@@H](C)CC)C(=O)N[C@@H](CCCNC(=N)N)C(=O)N[C@@H](C)C(=O)N[C@@H](C)C(=O)N[C@@H](CCC(N)=O)C(=O)N[C@@H](CCC(=O)O)C(=O)N[C@@H](CCC(N)=O)C(=O)N[C@@H](CCC(N)=O)C(=O)N[C@@H](CCC(=O)O)C(=O)N[C@@H](CCCCN)C(=O)N[C@@H](CC(N)=O)C(=O)N[C@@H](CCC(=O)O)C(=O)N[C@@H](C)C(=O)N[C@@H](C)C(=O)N[C@@H](CC(C)C)C(=O)N[C@@H](CCCNC(=N)N)C(=O)NCC(=O)N[C@@H](CO)C(=O)NCC(=O)N[C@@H](CSCC(=O)O[C@H]1CC[C@@]2(C)C(=CC[C@H]3[C@@H]4CC[C@H]([C@H](C)CCCC(C)C)[C@@]4(C)CC[C@@H]32)C1)C(N)=O
B17: Sifuvirtide-PBD (peptide)
peptide: Ac-ENYTRQIYRILEESQEQQDRNERDLL-NH2

What was measured:
[1] = test system: HIV wild type virus strain IIIB; test: Standard Anti-Viral-Experiment (AVE), HIV-1 replication assay in MT4-LTR-EGFP cells, wild type IIIB; format: cell-based; details: 3 days, EGFP signal
From the text: • Standard Anti-Viral-Experiment “AVE” (wild type HIV strain IIIB+HIV strain HXB2D side directed mutants V38A and Q40H)
The HIV-1 replication assay measures virus replication (HIV wild type virus strain 111B or HXB2D, or a HIV mutant virus strain HXB2D with mutation V38A or Q40H in the gp41 gene) as an induction of enhanced green fluorescent protein (EGFP) expression. The indicator MT4-LTR-EGFP cells contain an EGFP gene under the control of the HIV-1 LTR promoter sequence. Successful HIV-1 infection results in viral Tat protein expression and subsequent induction of EGFP expression. Compounds/peptides inhibiting HIV-1 infection are expected to reduce EGFP expression as compared to the untreated HIV-infected control.
Serial 4-fold dilutions of test compounds/peptides were mixed with HIV-1 (IIIB, HXB2D, or a HXB2D mutant virus (V38A or Q40H)) and MT4-LTR-EGFP cells and incubated at 37° C. After 3 days, the wells were examined for EGFP expression using an argon laser-scanning microscope. The effective compound/peptide concentration inhibiting 50% of the virus-induced EGFP signal (EC50) was determined by linear interpolation of the EGFP signal vs. logarithm of the compound concentration; (T20, C34 and Sifuvirtide were added as reference compounds). For the V38A and Q40H mutant viruses, results were reported as a fold change in EC50, as compared with a drug-susceptible wild type strain HXB2D, which forms the backbone of the mutant virus. • Standard AVE (50% Human Serum)

[2] = target: gp41 of HIV-1 strain HXB2D with mutation V38A (HIV-1 strain HXB2D, UniProt P04578); test: cell-based or functional assay

Molecule	EC50 [1]	fold change in EC50, HIV-HXB2D V38A mutant [2]
NNYTSLIHSLIEESQNQQEKNEQELL [C34-PBD*, reference compound]	> 49.2 µM	
B1		19 fold
B2		7 fold
B3		11 fold
B4		4 fold
B5		1 fold
B6		19 fold
B7		23 fold
B8		7 fold
B9		28 fold
B10		1 fold
B11		26 fold
B12		3 fold
B13		2 fold
B14		8 fold
B15		14 fold
B16		4 fold
B17		> 3 fold

Reference: US20140357577A1, “HIV Membrane Fusion Inhibitors” (priority 2011, published 2014)
